One block for each molecule: values may come before it.
B2: VEGF-R1D2 (Ig domain 2 of human VEGF-R1, residues 129-229, from E. coli) (receptor, UniProt P17948 129-229, looked up)
chain: SDTGRPFVEMYSEIPEIIHMTEGRELVIPCRVTSPNITVTLKKFPLDTLIPDGKRIIWDSRKGFIISNATYKEIGLLTCEATVNGHLYKTNYLTHRQTNTI
notes: range 129-229; Cloned into pQE30; also called Flt-1 domain 2

Assays:
[1] = target: VEGF-R1-(hflt1-4)gp130 fusion: chimeric receptor of human VEGF-R1 Ig domains 1 to 4 with the transmembrane and cytoplasmic domains of gp130, on clone 2.1.19.25 cells (human); experiment: cell-based or functional assay
[2] = target: VEGF-R1-(hflt1-4)gp130 fusion: chimeric receptor of human VEGF-R1 Ig domains 1 to 4 with the transmembrane and cytoplasmic domains of gp130, on clone 2.1.19.25 cells (human)
[3] = target: VEGF-R1D2 (Ig domain 2 of human VEGF-R1, residues 129-229, from E. coli) (human) (UniProt P17948); experiment: SPR (Biacore), VEGF-B immobilised on a CM5 chip, VEGF-R1D2 in solution, Scatchard analysis at steady state
[4] = target: B2; experiment: as above
Experimental: (§1) For initial Biosensor analysis of the binding of the purified and refolded VEGF-B3 isoforms, surface plasmon resonance (Biosensor 2000; Biacore, Sweden) and recombinant VEGF-R1D2 are used. […] The three forms of VEGF-B were immobilized on separate channels of a CM5 sensor chip, while murine LIF was immobilized to a fourth channel to serve as a negative control. Interaction with VEGF-R1D2 was monitored on all channels simultaneously.
(§2) Purified VEGF-R1D2 is diluted to varying concentrations in 0.1% w/v BSA, 20 mM HEPES, 0.15 M NaCl, 0.005% w/v Tween 20, 3.4 mM EDTA, pH 7.4. […] Scatchard analysis is used to determine binding kinetics at steady state equilibrium.

[5] = target: T1, VEGF-B186 (recombinant mature human, N-terminal His6-tagged, refolded homodimer from E. coli) (human, UniProt P49765 22-207, Refolded homodimer; one protomer given.); experiment: as above
T1 construct: not shown: N-terminal His6 tag coded by the pET15b vector
T1 sequence: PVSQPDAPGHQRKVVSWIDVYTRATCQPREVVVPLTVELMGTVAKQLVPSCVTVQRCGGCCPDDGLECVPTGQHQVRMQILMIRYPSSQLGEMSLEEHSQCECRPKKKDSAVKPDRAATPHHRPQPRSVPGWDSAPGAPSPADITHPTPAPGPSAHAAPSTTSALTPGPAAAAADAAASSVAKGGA
Experimental: as §1, §2

VEGF-R1-(hflt1-4)gp130 fusion: chimeric receptor of human VEGF-R1 Ig domains 1 to 4 with the transmembrane and cytoplasmic domains of gp130, on clone 2.1.19.25 cells (human), sequence (chain, as listed by the source mutant limits assumed, form in doubt): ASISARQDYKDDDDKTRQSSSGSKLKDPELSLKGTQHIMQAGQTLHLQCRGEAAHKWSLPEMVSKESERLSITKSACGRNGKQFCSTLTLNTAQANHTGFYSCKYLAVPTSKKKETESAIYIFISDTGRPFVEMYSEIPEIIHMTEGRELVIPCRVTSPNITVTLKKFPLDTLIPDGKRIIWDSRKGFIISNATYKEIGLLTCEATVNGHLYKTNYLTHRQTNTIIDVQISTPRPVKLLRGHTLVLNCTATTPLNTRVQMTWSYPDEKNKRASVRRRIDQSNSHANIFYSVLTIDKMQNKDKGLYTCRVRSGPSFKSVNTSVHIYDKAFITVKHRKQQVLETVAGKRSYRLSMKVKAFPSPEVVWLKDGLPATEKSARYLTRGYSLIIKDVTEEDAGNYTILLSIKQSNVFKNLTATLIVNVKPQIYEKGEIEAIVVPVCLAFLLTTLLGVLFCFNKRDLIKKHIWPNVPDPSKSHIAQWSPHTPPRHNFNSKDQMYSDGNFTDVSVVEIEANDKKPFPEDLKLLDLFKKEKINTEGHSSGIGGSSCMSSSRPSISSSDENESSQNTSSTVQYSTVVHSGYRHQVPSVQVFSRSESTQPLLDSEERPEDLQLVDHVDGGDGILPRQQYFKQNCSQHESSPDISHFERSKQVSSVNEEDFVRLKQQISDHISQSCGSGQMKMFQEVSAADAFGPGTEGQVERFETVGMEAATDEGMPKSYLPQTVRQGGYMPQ

- luciferase, signal to background ratio, clone 2.1.19.25 cells [1]: 2.5 to 3
Molecule: VEGF-A (ligand)

- EC50 (read off the curve) (luciferase reporter, clone 2.1.19.25 cells; VEGF-B167 titrated in the presence of the control mAb at 50 µg/ml) [2]: 0.3 µg/mL
- ED50, luciferase, 2.1.19.25 cell-based assay [1]: 0.15 to 0.3 µg/mL
- Kd [3]: 1.5 nM
Molecule: VEGF-B167 (recombinant, N-terminal His6-tagged, refolded homodimer from E. coli) (from UniProt P49765 22-207) (ligand)

- Kd [4]: 0.8 nM
B1: VEGF-B10-108 (truncated mature human VEGF-B, N-terminal His6-tagged, refolded homodimer from E. coli) (ligand, UniProt P49765 31-129, looked up)
chain: HQRKVVSWIDVYTRATCQPREVVVPLTVELMGTVAKQLVPSCVTVQRCGGCCPDDGLECVPTGQHQVRMQILMIRYPSSQLGEMSLEEHSQCECRPKKK
notes: not shown: additional 16 amino acids at the N-terminus which incorporate a His6 tag and a Genenase I cleavage site (pQE30)

Molecule: B2
- Kd [5]: 2 nM

Reference: patent publication US20040005671A1 (ZENYTH OPERATIONS, published 2004)
